Consider four molecules from patent US20250074942A1, “COMPOSITIONS AND METHODS FOR COVALENT PEPTIDE-BASED MODULATORS OF HLA-E” (Calico Life Sciences LLC, priority 2022, published 2025).

To fix the notation:
B1: VL9-8 Cys(mSF) (peptide)
peptide: VMAPRTLCL
modifications: not checked
B2: VL9-3 Cys(mSF) (peptide)
peptide: VMCPRTLFL
modifications: not checked
B3: VL9-7 Cys(mSF) (peptide)
peptide: VMAPRTCFL
modifications: not checked
B4: VL9-4 Cys(mSF) (peptide)
peptide: VMACRTLFL
modifications: not checked

The assay deals with HLA-E/B2M complex, refolded and biotinylated ([HLAE(hu)(22-305)]-Avitag + [B2M(h)(21-119)]) (human), P13747. Briefly: cross-linking, 10-fold excess over [HLA-E+VL9], 4 h 37 C, LC-MS.
For B1, the % cross-linking with HLA-E is 87%.

Regarding B2, the % cross-linking with HLA-E was 73%.

Consider B3, for which the % cross-linking with HLA-E was 22%.

Regarding B4, the % cross-linking with HLA-E was 36%.
